Article PMC4820727

Tests used:
Assay in all cases: flow cytometry on cells; Adh adhesion to 293T cells displaying the candidate protein from pDisplay; adhesion rate compared with the control group
[1] = molecular target: OR5M11 displayed on the surface of 293T cells (pDisplay) (pig (protein identified from porcine alveolar macrophages; source of the cDNA not stated))
[2] = molecular target: RAB1B displayed on the surface of 293T cells (pDisplay) (pig (protein identified from porcine alveolar macrophages; source of the cDNA not stated)) (UniProt Q06AU7)
[3] = molecular target: RAB14 displayed on the surface of 293T cells (pDisplay) (pig (protein identified from porcine alveolar macrophages; source of the cDNA not stated)) (UniProt Q52NJ6)
[4] = molecular target: CARD displayed on the surface of 293T cells (pDisplay) (pig (protein identified from porcine alveolar macrophages; source of the cDNA not stated))

Measured: fold increase of the adhesion rate over the control group

Chain of UniProt Q06AU7 (Q06AU7 whole entry): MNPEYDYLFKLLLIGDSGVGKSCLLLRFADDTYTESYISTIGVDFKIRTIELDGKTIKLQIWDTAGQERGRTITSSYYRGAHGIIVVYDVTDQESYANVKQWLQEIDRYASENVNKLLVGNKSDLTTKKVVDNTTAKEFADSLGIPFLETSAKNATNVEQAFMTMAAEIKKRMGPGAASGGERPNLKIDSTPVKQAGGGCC
Chain of UniProt Q52NJ6 (Q52NJ6 whole entry): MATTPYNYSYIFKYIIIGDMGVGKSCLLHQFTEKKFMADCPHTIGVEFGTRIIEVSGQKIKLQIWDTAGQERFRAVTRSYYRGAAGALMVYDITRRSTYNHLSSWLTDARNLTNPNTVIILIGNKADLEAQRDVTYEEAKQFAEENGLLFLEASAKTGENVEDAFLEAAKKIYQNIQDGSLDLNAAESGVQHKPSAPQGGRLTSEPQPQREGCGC

Adh, the 68-612 aa head domain of the trimeric autotransporter adhesin Apa1 of Actinobacillus pleuropneumoniae (domain or fragment)
> 3 fold: all assays above
